{"source": "patent US9867860B2", "about": "“Formulations for preventing and treating decreasing platelet cell counts” (priority 2013, dated 2018)", "origin": "cited, not measured here", "molecules": {"B1": {"name": "IL-11: recombinant human IL-11, cytokine stimulating megakaryocyte maturation (protein, UniProt P20809 22-199, looked up)", "Interleukin-11": "PGPPPGPPRVSPDPRAELDSTVLLTRSLLADTRQLAAQLRDKFPADGDHNLDSLPTLAMSAGALGALQLPGVLTRLRADLLSYLRHVQWLRRAGGSSLKTLEPELGTLQARLDRLLRRLQLLMSRLALPQPPPDPPAPPLAPPSSAWGGIRAAHAILGGLHLTLDWAVRGLLLLKTRL"}}, "key": {"[1]": {"tested_on": "patients with ITP and liver disease", "settings": "for side effects: human, in vivo"}, "[2]": {"tested_on": "refractory immune thrombocytopenia", "settings": "two cases; high-dose vitamin D supplementation and hydroxychloroquine in combination"}, "thrombocytopenia": {"tested_on": "thrombocytopenia", "settings": "Vitamin B12 and folate together, deficiency"}, "[3]": {"tested_on": "thrombocytopenia associated with chemotherapy, HCV infection, or early liver cirrhosis"}, "[4]": {"tested_on": "patients with solid tumors who had previously received platelet transfusion because of myelosuppression", "settings": "randomized, placebo-controlled trial"}}}
{"molecule": "CC1=NN(c2ccc(C)c(C)c2)C(=O)/C1=N\\Nc1cccc(-c2cccc(C(=O)O)c2)c1O", "note": "[Eltrombopag]", "values": [{"measurement": "side effects", "setting": "[1]", "value": "bone marrow fibrosis, thrombosis, and ocular toxicities"}]}
{"molecule": "CCN(CCO)CCCC(C)Nc1ccnc2cc(Cl)ccc12", "note": "(stereo not shown) [hydroxychloroquine, reference compound]", "values": [{"measurement": "treatment outcome of refractory immune thrombocytopenia", "setting": "[2]", "value": "successfully treated"}]}
{"molecule": "Romiplostim", "values": [{"measurement": "side effects", "setting": "[1]", "value": "bone marrow fibrosis, thrombosis, and ocular toxicities"}, {"measurement": "platelet count", "setting": "[1]; patients with ITP and liver disease, continuous treatment", "value": "increase platelet count"}]}
{"molecule": "Vitamin B12", "values": [{"measurement": "correction of thrombocytopenia on repletion", "setting": "thrombocytopenia", "value": "rapidly corrects"}]}
{"molecule": "vitamin D", "values": [{"measurement": "treatment outcome of refractory immune thrombocytopenia", "setting": "[2]", "value": "successfully treated"}]}
{"molecule": "B1", "values": [{"measurement": "platelet counts, IL-11 group versus peanut skins extract group", "setting": "myelosuppressed mice; d7", "value": "significantly higher"}, {"measurement": "platelet counts versus control thrombocytopenia group", "setting": "myelosuppressed mice; d7, subcutaneous", "value": "significantly improved"}, {"measurement": "platelet counts", "setting": "myelosuppressed mice; d10, subcutaneous", "value": "further improved"}, {"measurement": "other side effects", "setting": "[3]; human, in vivo", "value": "dyspnea, atrial arrhythmias, syncope, and fatigue"}, {"measurement": "side effect: edema, share of patients", "setting": "[3]; human, in vivo", "value": "more than 50 % of patients"}, {"measurement": "correction of thrombocytopenia", "setting": "[3]; thrombocytopenia associated with chemotherapy, HCV infection, or early liver cirrhosis, in some degree", "value": "could correct thrombocytopenia"}, {"measurement": "reduction of the number of patients in need of platelet transfusions", "setting": "[4]", "value": 26, "unit": "%"}]}
